Tests used:
PTHR1 (Homo sapiens) = PTHR1 (Homo sapiens) (UniProt Q03431); assay: radioligand competition; conditions: cited from earlier work
[1] = target: PTH1 receptor (PTHR1), recombinant, on transfected HEK 293a cells (UniProt Q03431)

PTH, sequence (P01270 32-115): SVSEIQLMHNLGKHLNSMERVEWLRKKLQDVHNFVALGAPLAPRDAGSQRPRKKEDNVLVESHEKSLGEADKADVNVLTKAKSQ

Substance: PTH1-34 1-34 (from UniProt P01270)
- Ki (PTHR1 (Homo sapiens)): 4 nM

Substance: PTH (from UniProt P01270)
- Ki (PTHR1 (Homo sapiens)): 2 nM

Substance: PTH-HRP (prepro-PTH(1-84) fused to the N-terminus of horseradish peroxidase, N175S mutant) (from UniProt P01270 32-115) (ligand)
- potency in cyclic AMP generation (10 min) in HEK 293a cells expressing PTHR1, against PTH(1-34) [1]: 5 fold

— paper PMC5638942
